The source of these data is IntAct's records for PubMed 17215868.

The labels stand for the following.
B1: Vacuolar protein-sorting-associated protein 36 (Saccharomyces cerevisiae), Q06696 (parent)
chain: MEYWHYVETTSSGQPLLREGEKDIFIDQSVGLYHGKSKILQRQRGRIFLTSQRIIYIDDAKPTQNSLGLELDDLAYVNYSSGFLTRSPRLILFFKDPSSKDELGKSAETASADVVSTWVCPICMVSNETQGEFTKDTLPTPICINCGVPADYELTKSSINCSNAIDPNANPQNQFGVNSENICPACTFANHPQIGNCEICGHRLPNASKVRSKLNRLNFHDSRVHIELEKNSLARNKSSHSALSSSSSTGSSTEFVQLSFRKSDGVLFSQATERALENILTEKNKHIFNQNVVSVNGVDMRKGASSHEYNNEVPFIETKLSRIGISSLEKSRENQLLNNDILFNNALTDLNKLMSLATSIERLYKNSNITMKTKTLNLQDESTVNEPKTRRPLLILDREKFLNKELFLDEIAREIYEFTLSEFKDLNSDTNYMIITLVDLYAMYNKSMRIGTGLISPMEMREACERFEHLGLNELKLVKVNKRILCVTSEKFDVVKEKLVDLIGDNPGSDLLRLTQILSSNNSKSNWTLGILMEVLQNCVDEGDLLIDKQLSGIYYYKNSYWPSHI
partner: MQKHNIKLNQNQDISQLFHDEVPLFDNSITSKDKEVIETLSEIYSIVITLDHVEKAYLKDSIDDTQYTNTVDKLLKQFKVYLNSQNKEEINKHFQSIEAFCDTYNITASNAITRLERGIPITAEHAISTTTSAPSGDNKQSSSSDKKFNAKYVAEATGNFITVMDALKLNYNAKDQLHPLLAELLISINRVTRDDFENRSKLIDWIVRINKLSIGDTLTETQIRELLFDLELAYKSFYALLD

Variants of B1 are the subject of the first test. To be noted: with vps28_yeast VPS28, Q02767.
Consider I122D;V148D, for which the “effect of a mutation on the interaction” value is listed as “disrupting interaction”.

In a further test the parent is B1. As to conditions: with vps28_yeast VPS28, Q02767. This is another data set of the same source.
In the case of I122D, the “effect of a mutation on the interaction” value is reported as “disrupting interaction”.

Variants of B1 are the subject of a further test. To be noted: with vps28_yeast VPS28, Q02767. This is another data set of the same source.
As to D151R;L154R, the “effect of a mutation on the interaction” value was “disrupting interaction”.

The variants in another test derive from B1. To be noted: with vps28_yeast VPS28, Q02767. This is another data set of the same source.
As for V148D;D151R, the “effect of a mutation on the interaction” value is reported as “disrupting interaction”.
